In assay [1] the test system is Tumors derived from A375v/pCEP cells. The experiment in a line: Tumor growth in A375v xenograft, Example 6 (VEGF receptor kinase inhibitor and/or L19 scFv-tTF). Conditions: kinase inhibitor 50 mg/kg daily oral; L19 scFv-tTF single i.v. dose of 20 μg; untreated control approx. 1000 mm^3. It is filed as in vivo, nude mice. The protocol: Tumors derived from A375v/pCEP cells were induced in nude mice as described in example 1. Animals receiving compound I were treated for up to 28 days with daily oral doses of 50 mg/kg of the VEGF receptor tyrosine kinase inhibitor (4-Chlorophenyl)[4-(4-pyridylmethyl)-phthalazin-1-yl]ammonium hydrogen succinate (Wood et al., Cancer Res. 60, 2178-2189, 2000). Compound II consists of L19 scFv-tTF fusion protein as described in example 5. When tumors reached a size of approx. 200 mm^3 animals receiving compound II were treated with a single intravenous dose of 20 μg of L19 scFv-tTF in 200 μl saline. Various modes of treatment are described in Table 6. Animals were sacrificed for ethical reasons when tumors of -group 1 exceeded a volume of approx. 1000 mm^3. Tumor growth was determined by caliper measurement of the largest diameter and its perpendicular.

The test system is the same in assay [2]. The experiment in a line: Tumor growth in A375v xenograft, Example 4 (VEGF receptor kinase inhibitor and/or scFv-tTF conjugate). The format is in vivo, nude mice. Conditions: kinase inhibitor 50 mg/kg daily oral; scFv-tTF conjugate 20 μg i.v. on day 0 and day 4; untreated control approx. 1000 mm^3. How it is done: (§1) Tumors derived from A375v/pCEP cells were induced in nude mice as described in example 1. Animals receiving compound I were treated for up to 28 days with daily oral doses of 50 mg/kg of the VEGF receptor tyrosine kinase inhibitor (4-Chlorophenyl)[4-(4-pyridylmethyl)-phthalazin-1-yl]ammonium hydrogen succinate (Wood et al., Cancer Res. 60, 2178-2189, 2000). Compound II consists of a single chain antibody (scFv) specifically recognizing the human VEGF-A/VEGF receptor I complex (WO 99/19361) which was expressed in E. coli and conjugated to coagulation-inducing recombinant human truncated tissue factor (tTF) by methods descibed by Ran et al. (Cancer Res. 58, 46464653, 1998). When tumors reached a size of approx. 200 mm^3 animals receiving compound II were treated on day 0 and on day 4 with intravenous doses of 20 μg of the scFv-tTF conjugate. Various modes of treatment are described in Table 4. Animals were sacrificed for ethical reasons when tumors of group 1 exceeded a volume of approx. 1000 mm^3. Tumor growth was determined by caliper measurement of the largest diameter and its perpendicular.

In assay [3] the test system is A375v human melanoma xenograft (A375v/pCEP, A375v/sTie2). The experiment in a line: Tumor growth in A375v human melanoma xenograft model, Example 1 (VEGF receptor kinase inhibitor and/or sTie2). It is filed as in vivo, Swiss nu/nu mice. Conditions: s.c. A375v xenograft; kinase inhibitor 50 mg/kg daily oral; sTie2 expressed by tumor cells; untreated control 24 days. How it is done: Human melanoma cell line A375v was stably transfected to overexpress the extracellular ligand-neutralizing domain of human Tie2 receptor tyrosine kinase (sTie2; compound II) (Siemeister et al., Cancer Res. 59, 3185-3191, 1999). For control, A375v cells were stably transfected with the empty expression vector (A375v/pCEP). Swiss nu/nu mice were s.c. injected with 1×10^6 transfected A375v/sTie2 or A375v/pCEP tumor cells, respectively. Animals receiving compound I were treated for up to […] with daily oral doses of 50 mg/kg of the VEGF receptor tyrosine kinase inhibitor (4-Chlorophenyl)[4-(4-pyridylmethyl)-phthalazin-1-yl]ammonium hydrogen succinate (Wood et al., Cancer Res. 60, 2178-2189, 2000). Various modes of treatment are described in Table 1. Tumor growth was determined by caliper measurement of the largest diameter and its perpendicular.

Assay [4] deals with Tumors derived from A375v/sTie2 cells and from A375v/pCEP cells. The experiment in a line: Tumor growth in A375v xenograft, Example 3 (scFv-tTF conjugate and/or sTie2). The format is in vivo, nude mice. Conditions: sTie2 expressed by tumor cells; untreated control approx. 1000 mm^3. How it is done: as §1, with “derived from A375v/sTie2 cells and” for “derived”, “A” for “Animals receiving compound I were treated for up to 28 days with daily oral doses of 50 mg/kg of the VEGF receptor tyrosine kinase inhibitor (4-Chlorophenyl)[4-(4-pyridylmethyl)-phthalazin-1-yl]ammonium hydrogen succinate (Wood et al., Cancer Res. 60, 2178-2189, 2000). Compound II consists of a”, “99/19361)” for “99/19361) which”, “4646-4653,” for “46464653,”, “I” for “II”, “3.” for “4.”

For assay [5] the test system is unchanged. The experiment in a line: Tumor growth in A375v xenograft, Example 5 (L19 scFv-tTF and/or sTie2). Conditions: sTie2 expressed by tumor cells; untreated control approx. 1000 mm^3. It is filed as in vivo, nude mice. From the text: Tumors derived from A375v/sTie2 cells and from A375v/pCEP cells were induced in nude mice as described in example 1. A fusion protein (L19 scFv-tTF) consisting of L19 single chain antibody specifically recognizing the oncofoetal ED-B domain of fibronectin and the extracellular domain of tissue factor was expressed in E. coli as described by Nilsson et al. (Nat. Med., in press). Further, L19 scFv-tTF data have been represented by D. Neri and F. Nilsson (Meeting “Advances in the application of monoclonal antibodies in clinical oncology”, Samos, Greece, 31. May-2. June 2000). When tumors reached a size of approx. 200 mm^3 animals receiving compound I were treated with a single intravenous dose of 20 μg of L19 scFv-tTF in 200 μl saline. Various modes of treatment are described in Table 5. Animals were sacrificed for ethical reasons when tumors of group 1 exceeded a volume of approx. 1000 mm^3. Tumor growth was determined by caliper measurement of the largest diameter and its perpendicular.

Assay [6] has the same test system. The experiment in a line: Tumor growth in A375v xenograft, Example 2 (mAb 4301-42-35 and/or sTie2). It is filed as in vivo, nude mice. Conditions: sTie2 expressed by tumor cells; untreated control approx. 1000 mm^3. The protocol:
Tumors derived from A375v/sTie2 cells and from A375v/pCEP cells were induced in nude mice as described in example 1. Animals receiving compound I were treated twice weekly over a period of time of 4 weeks with intraperitoneal doses of 200 μg of the VEGF-A-neutralizing monoclonal antibody (mAb) 4301-42-35 (Schlaeppi et al., J. Cancer Res. Clin. Oncol. 125, 336-342, 1999). Various modes of treatment are descibed in Table 2. Animals were sacrificed for ethical reasons when tumors of group 1 exceeded a volume of approx. 1000 mm^3. Tumor growth was determined by caliper measurement of the largest diameter and its perpendicular.

Consider `Clc1ccc(Nc2nnc(Cc3ccncc3)c3ccccc23)cc1.O=C(O)CCC(=O)O` [(4-Chlorophenyl)[4-(4-pyridylmethyl)-phthalazin-1-yl]ammonium hydrogen succinate], for which the “tumor volume within 28 days” value in assay [1] and in assay [2] was “approx. 550 mm^3” throughout. For the same molecule, the “time for tumors to grow to a size of approx. 250 mm^2 (mean area)” value in assay [3] was found to be 31 days.

B1: sTie2: extracellular ligand-neutralizing domain of human Tie2 receptor tyrosine kinase, overexpressed by transfected A375v cells (protein, UniProt Q02763 23-748, looked up)
extracellular domain: AMDLILINSLPLVSDAETSLTCIASGWRPHEPITIGRDFEALMNQHQDPLEVTQDVTREWAKKVVWKREKASKINGAYFCEGRVRGEAIRIRTMKMRQQASFLPATLTMTVDKGDNVNISFKKVLIKEEDAVIYKNGSFIHSVPRHEVPDILEVHLPHAQPQDAGVYSARYIGGNLFTSAFTRLIVRRCEAQKWGPECNHLCTACMNNGVCHEDTGECICPPGFMGRTCEKACELHTFGRTCKERCSGQEGCKSYVFCLPDPYGCSCATGWKGLQCNEACHPGFYGPDCKLRCSCNNGEMCDRFQGCLCSPGWQGLQCEREGIQRMTPKIVDLPDHIEVNSGKFNPICKASGWPLPTNEEMTLVKPDGTVLHPKDFNHTDHFSVAIFTIHRILPPDSGVWVCSVNTVAGMVEKPFNISVKVLPKPLNAPNVIDTGHNFAVINISSEPYFGDGPIKSKKLLYKPVNHYEAWQHIQVTNEIVTLNYLEPRTEYELCVQLVRRGEGGEGHPGPVRRFTTASIGLPPPRGLNLLPKSQTTLNLTWQPIFPSSEDDFYVEVERRSVQKSDQQNIKVPGNLTSVLLNNLHPREQYVVRARVNTKAQGEWSEDLTAWTLSDILPPQPENIKISNITHSSAVISWTILDGYSISSITIRYKVQGKNEDQHVDVKIKNATITQYQLKGLEPETAYQVDIFAENNIGSSNPAFSHELVTLPESQAPADLGGGKMLL
modifications: extracellular domain
notes: extracellular ligand-neutralizing domain of human Tie2 receptor tyrosine kinase, overexpressed by transfected A375v cells
For the molecule B1, the “tumor volume within 28 day” value in assay [4], in assay [5] and in assay [6] was “approx. 600 mm^2” throughout. Besides, the “time for tumors to grow to a size of approx. 250 mm^2 (mean area)” value in assay [3] is 31 days.

Values taken from patent US20030055006A1, “Combinations and compositions which interfere with VEGF/VEGF and angiopoietin/tie receptor function and their use” (Schering Aktiengesellschaft, priority 2000, published 2003).
